Results: PMC5095173, “Disulfide-activated protein kinase G Iα regulates cardiac diastolic relaxation and fine-tunes the Frank–Starling response” (Nature Communications, 2016)

Legend:
[1] = test system: PKGIα (analogue-sensitive M438G), disulfide-activated; test: Chemical genetic phosphoproteomic screen, disulfide-activated PKGIα M438G versus unactivated control; type: biochemical, human PKGIα; substrates in rat heart homogenate; settings: for log2 fold change Disulfide vs Control: control = PKGIα C42S/M438G; for Log2 fold change in phosphorylation, Disulfide versus control: disulfide-activated PKGIα M438G vs basal, 1 h, 30 °C, pH 7.5, rat heart homogenate, label-free LC–MS/MS, n=4, * P<0.05 Dunnett: only phospholamban S16
Summary of the method: (§1)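 Analogue-sensitive human PKGIα mutants (M438G, air-oxidized to disulfide dimer; C42S/M438G, cGMP-activated), expressed in 293-F cells, thiophosphorylate substrates in rat left-ventricle lysate (20 mg ml) using N6-alkylated ATPγS. Thiophosphopeptides are recovered by covalent capture and identified with sites by LC–MS/MS, each compared against an unactivated control.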

[2] = test system: PKGIα (analogue-sensitive C42S/M438G), cGMP-activated; test: Chemical genetic phosphoproteomic screen, cGMP-activated PKGIα C42S/M438G versus unactivated control; type: biochemical, human PKGIα; substrates in rat heart homogenate; settings: for log2 fold change cGMP vs Control: control = PKGIα C42S/M438G; for Log2 fold change in phosphorylation, cGMP versus control: PKGIα C42S/M438G + 100 μM cGMP vs basal, 1 h, 30 °C, pH 7.5, rat heart homogenate, label-free LC–MS/MS, n=4, * P<0.05 Dunnett: all values except phospholamban S16
Summary of the method: as §1

| Molecule | log2 fold change Disulfide vs Control [1] | log2 fold change cGMP vs Control [2] | Log2 fold change in phosphorylation, Disulfide versus control [1] | Log2 fold change in phosphorylation, cGMP versus control [2] |
| --- | --- | --- | --- | --- |
| Atp5a1 pS184 (protein, UniProt P15999 44-553, looked up, phosphorylated at S184) ATP synthase F(1) complex …: QKTGTAEMSSILEERILGADTSVDLEETGRVLSIGDGIARVHGLRNVQAEEMVEFSSGLKGMSLNLEPDNVGVVVFGNDKLIKEGDIVKRTGAIVDVPVGDELLGRVVDALGNAIDGKGPVGSKIRRRVGLKAPGIIPRISVREPMQTGIKAVDSLVPIGRGQRELIIGDRQTGKTSIAIDTIINQKRFNDGTDEKKKLYCIYVAIGQKRSTVAQLVKRLTDADAMKYTIVVSATASDAAPLQYLAPYSGCSMGEYFRDNGKHALIIYDDLSKQAVAYRQMSLLLRRPPGREAYPGDVFYLHSRLLERAAKMNDSFGGGSLTALPVIETQAGDVSAYIPTNVISITDGQIFLETELFYKGIRPAINVGLSVSRVGSAAQTRAMKQVAGTMKLELAQYREVAAFAQFGSDLDAATQQLLSRGVRLTELLKQGQYSPMAIEEQVAVIYAGVRGYLDKLEPSKITKFESAFLSHVVSQHQSLLGNIRSDGKISEQSDAKLKEIVTNFLAGFEP | 1.986 | 3.438 | – | – |
| 6-phosphofructokinase, liver type: PKGIα substrate, phospho site S775 (protein, UniProt P30835 2-780, looked up, phosphorylated at S775) ATP-dependent …: ATVDLEKLRMSGAGKAIGVLTSGGDAQGMNAAVRAVTRMGIYVGAKVFLIYEGYEGLVEGGENIKPANWLSVSNIIQLGGTIIGSARCKAFTTREGRLAAAYNLLQHGITNLCVIGGDGSLTGANIFRNEWGSLLEELVKEGKISESTAQNYAHLSIAGLVGSIDNDFCGTDMTIGTDSALHRIMEVIDAITTTAQSHQRTFVLEVMGRHCGYLALVSALASGADWLFIPEAPPEDGWENFMCERLGETRSRGSRLNIIIIAEGAIDRHGKPISSSYVKDLVVQRLGFDTRVTVLGHVQRGGTPSAFDRVLSSKMGMEAVMALLEATPDTPACVVSLSGNQSVRLPLMECVQVTKDVQKAMDEKRFDEAIQLRGRSFENNWKIYKLLAHQKVSKEKSNFSLAILNVGAPAAGMNAAVRSAVRTGISEGHTVYVVHDGFEGLAKGQVQEVGWHDVAGWLGRGGSMLGTKRTLPKPHLEAIVENLRTYNIHALLVIGGFEAYEGVLQLVEARGRYEELCIVMCVIPATISNNVPGTDFSLGSDTAVNAAMESCDRIKQSASGTKRRVFIVETMGGYCGYLATVTGIAVGADAAYVFEDPFNIHDLKANVEHMTEKMKTDIQRGLVLRNEKCHEHYTTEFLYNLYSSEGRGVFDCRTNVLGHLQQGGAPTPFDRNYGTKLGVKAMLWMSEKLRDVYRKGRVFANAPDSACVIGLRKKVVAFSSVTELKKETDFEHRMPREQWWLNLRLMLKMLAHYRISMADYVSGELEHVTRRTLSIDKGF | – | – | 1.48 | 4.13* |
| Pfkl pS775 (protein, UniProt P30835 2-780, looked up, phosphorylated at S775) ATP-dependent …: ATVDLEKLRMSGAGKAIGVLTSGGDAQGMNAAVRAVTRMGIYVGAKVFLIYEGYEGLVEGGENIKPANWLSVSNIIQLGGTIIGSARCKAFTTREGRLAAAYNLLQHGITNLCVIGGDGSLTGANIFRNEWGSLLEELVKEGKISESTAQNYAHLSIAGLVGSIDNDFCGTDMTIGTDSALHRIMEVIDAITTTAQSHQRTFVLEVMGRHCGYLALVSALASGADWLFIPEAPPEDGWENFMCERLGETRSRGSRLNIIIIAEGAIDRHGKPISSSYVKDLVVQRLGFDTRVTVLGHVQRGGTPSAFDRVLSSKMGMEAVMALLEATPDTPACVVSLSGNQSVRLPLMECVQVTKDVQKAMDEKRFDEAIQLRGRSFENNWKIYKLLAHQKVSKEKSNFSLAILNVGAPAAGMNAAVRSAVRTGISEGHTVYVVHDGFEGLAKGQVQEVGWHDVAGWLGRGGSMLGTKRTLPKPHLEAIVENLRTYNIHALLVIGGFEAYEGVLQLVEARGRYEELCIVMCVIPATISNNVPGTDFSLGSDTAVNAAMESCDRIKQSASGTKRRVFIVETMGGYCGYLATVTGIAVGADAAYVFEDPFNIHDLKANVEHMTEKMKTDIQRGLVLRNEKCHEHYTTEFLYNLYSSEGRGVFDCRTNVLGHLQQGGAPTPFDRNYGTKLGVKAMLWMSEKLRDVYRKGRVFANAPDSACVIGLRKKVVAFSSVTELKKETDFEHRMPREQWWLNLRLMLKMLAHYRISMADYVSGELEHVTRRTLSIDKGF | 1.482 | 4.1288 | – | – |
| Akap1 pS103 (protein, UniProt O88884 30-854, looked up, phosphorylated at S103) A-kinase anchor protein 1, …: KDRLSSNGKQVGTLKVGPAIEDRLPTEEACPGVLSVTPSVTQPPGKEEQRSMDRPLSDPPALPRTRQVRRRSESSGNLPSIVDTRLQAGQCSDENSKVVLSLMGDEAKSIPLGRPLFPKDLSFPYEAVEGCKQESALGRTPGRGWLSQCAASGENARETGGAEGTGDAVLGESVLEEGLLPQECVSEVEKSEFPILAPGGGGGEKVRSGPPQVDELLKKEEYIVGKLPSSFVGPVHSELVKDEGALVPQVKGSQDRSLARELDKDKTLPEKDQIEQTAFQIISQVILEATEEIRATTVGKTVAQVHPTPGTQPQGQEESCVPASQETSLGQEIPDPASTRTGATASPSAGAPPPKTYVSCLSSPLSGPTKDQKPKNSAHHISLAPCPPPVTPQRQSLDGASNPRGDDTFVTCTSNNSQSVLSVTSLGLCSDPVSTSRLEDSCTETISSSGDKAVTPPLPDSTEPFSNGVLKEELSDLGTEDGWTMDTEADHSGGSDGNSMDSVDSCCGLTKPDSPQTVQAGSNPKKVDLIIWEIEVPKHLVGRLIGKQGRYVSFLKQTSGAKIYISTLPYTQNIQICHIEGSQHHVDKALNLIGKKFKELNLTNIYAPPLPSLALPSLPMTSWLMLPDGITVEVIVVNQVNAGHLFVQQHTHPTFHALRSLDQQMYLCYSQPGIPTLPTPVEITVICAAPGADGAWWRAQVVASYEETNEVEIRYVDYGGYKRVKVDVLRQIRSDFVTLPFQGAEVLLDSVVPLSDDDHFSPEADAAMSEMTGNTALLAQVTSYSATGLPLIQLWSVVGDEVVLINRSLVERGLAQWVDSCYASL | 0.8425 | 1.156 | – | – |
| Fdx1 pS181 (protein, UniProt P24483 65-188, looked up, phosphorylated at S181) Adrenodoxin, mitochondrial: SSSEDKVTVHFKNRDGETLTTKGKVGDSLLDVVIENNLDIDGFGACEGTLACSTCHLIFEDHIYEKLDAITDEENDMLDLAFGLTNRSRLGCQVCLTKAMDNMTVRVPEAVADVRQSVDMSKNS | 2.723 | 5.584 | – | – |
| C-1-tetrahydrofolate synthase, cytoplasmic: PKGIα substrate, phospho site T545 (protein, UniProt P27653 1-935, looked up, phosphorylated at T545) C-1-tetrahydrofolate …: MAPAGILNGKVVSAQIRNRLKTQVTQMQEQVPGFTPGLAILQVGDRDDSNLYINVKLKAAQEIGIKATHIKLPRTSTESEVLKYVISLNEDATVHGFIVQLPLDSENSINTEAVINAIAPEKDVDGLTSINAGKLARGDLKDCFIPCTPKGCLELIKETGVQIAGRHAVVVGRSKIVGAPMHDLLLWNNATVTTCHSKTADLDKEVNKGDILVVATGQPEMVKGEWIKPGAVVIDCGINYVPDDTKPNGRKVVGDVAYDEAKEKASFITPVPGGVGPMTVAMLMQSTVESAQRFLKKFKPGKWTIQYNKLNLKTPVPSDIAISRSCKPKLIGNLAREIGLLTEEVELYGETKAKVLLSALDRLKHQPDGKYVVVTGITPTPLGEGKSTTTIGLVQALGAHLHQNVFACVRQPSQGPTFGIKGGAAGGGYSQVIPMEEFNLHLTGDIHAITAANNLVAAAIDARIFHELTQTDKALFNRLVPSVNGVRKFSDIQIRRLRRLGIEKTDPAALTDDEINRFARLDIDPETITWQRVLDTNDRFLRKITIGQAPTEKGHTRTAQFDISVASEIMAVLALTSSLEDMRARLGKMVVASSKKGEPISCEDLGVSGALTVLMKDAIKPNLMQTLEGTPVFVHAGPFANIAHGNSSIIADRIALKLVGPEGFVVTEAGFGADIGMEKFFNIKCRYSGLQPHVVVLVATVRALKMHGGGPTVTAGLPLPKAYTEEDLDLVEKGFSNLRKQIENARMFGVPVVVAMNAFKTDTDTELDLIGRLSREHGAFDAVKCTHWAEGGQGALALAQAVQRASQAPSSFQLLYDLKLSVEDKIRIIAQKIYGADDIELLPEAQNKAEIYTKQGFGNLPICMAKTHLSLSHNPEQKGVPTGFVLPIRDIRASVGAGFLYPLVGTMSTMPGLPTRPCFYDIDLDPETEQVNGLF | – | – | 1.48 | 3.68* |
| Alpha-2-macroglobulin receptor-associated protein: PKGIα substrate, phospho site S245 (protein, UniProt Q99068 34-360, looked up, phosphorylated at S245) Alpha-2-macroglobulin …: HGGKYSREKNEPEMAAKRESGEEFRMEKLNQLWEKAKRLHLSPVRLAELHSDLKIQERDELNWKKLKVEGLDGDGEKEAKLVHNLNVILARYGLDGRKDTQTVHSNALNEDTQDELGDPRLEKLWHKAKTSGKFSSEELDKLWREFLHYKEKIHEYNVLLDTLSRAEEGYENLLSPSDMTHIKSDTLASKHSELKDRLRSINQGLDRLRKVSHQGYGPATEFEEPRVIDLWDLAQSANFTEKELESFREELKHFEAKIEKHNHYQKQLEISHQKLKHVESIGDPEHISRNKEKYVLLEEKTKELGYKVKKHLQDLSSRVSRARHNEL | – | – | 0.32 | 2.64* |
| Lrpap1 pS245 (protein, UniProt Q99068 34-360, looked up, phosphorylated at S245) Alpha-2-macroglobulin …: HGGKYSREKNEPEMAAKRESGEEFRMEKLNQLWEKAKRLHLSPVRLAELHSDLKIQERDELNWKKLKVEGLDGDGEKEAKLVHNLNVILARYGLDGRKDTQTVHSNALNEDTQDELGDPRLEKLWHKAKTSGKFSSEELDKLWREFLHYKEKIHEYNVLLDTLSRAEEGYENLLSPSDMTHIKSDTLASKHSELKDRLRSINQGLDRLRKVSHQGYGPATEFEEPRVIDLWDLAQSANFTEKELESFREELKHFEAKIEKHNHYQKQLEISHQKLKHVESIGDPEHISRNKEKYVLLEEKTKELGYKVKKHLQDLSSRVSRARHNEL | 0.3181 | 2.6435 | – | – |
